The record followed here is patent US20190040368A1.

This assay concerns the target recombinant human iduronate-2 sulfatase (rhIDS) (human) (UniProt P22304). Kind of assay: cell-based or functional assay.

Sequence of recombinant human iduronate-2 sulfatase (rhIDS) (human) (P22304 26-550 limits assumed): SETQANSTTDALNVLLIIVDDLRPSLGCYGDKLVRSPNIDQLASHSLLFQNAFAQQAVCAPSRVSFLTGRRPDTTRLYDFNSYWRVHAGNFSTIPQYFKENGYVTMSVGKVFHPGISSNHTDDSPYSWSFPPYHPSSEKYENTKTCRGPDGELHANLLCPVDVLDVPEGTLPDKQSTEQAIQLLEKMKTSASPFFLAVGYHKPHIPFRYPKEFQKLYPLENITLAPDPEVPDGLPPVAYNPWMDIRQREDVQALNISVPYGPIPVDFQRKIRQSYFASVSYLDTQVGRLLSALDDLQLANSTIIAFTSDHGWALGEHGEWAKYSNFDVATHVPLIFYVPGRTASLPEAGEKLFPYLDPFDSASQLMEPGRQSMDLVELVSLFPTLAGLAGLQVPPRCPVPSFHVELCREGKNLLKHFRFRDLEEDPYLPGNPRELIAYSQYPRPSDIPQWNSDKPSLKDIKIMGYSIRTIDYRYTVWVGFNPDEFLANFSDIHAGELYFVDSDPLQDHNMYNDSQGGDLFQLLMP

For the substance “Bos taurus FGE fusion protein (Lip2pre-BtFGE-6HIS-HDEL) (from UniProt Q0P5L5 34-374) (enzyme)”, the % FGly (LC-MS); 1 copy rhIDS, 1 copy BtFGE (POX) turned out to be 100% and the % FGly (LC-MS); 1 copy rhIDS, 1 copy BtFGE (POX), 1 copy hPDI (POX) was determined as 100%.

As to “Dendroctonus ponderosa Lip2-DpFGE-His6-HDEL fusion construct (enzyme)”, the % FGly (LC-MS); co-expression with DpFGE turned out to be 25%.
